Assay [1] concerns the target MAP1LC3B ATG8 domain (human). As to the kind of experiment: fluorescence polarisation; displacement: unlabelled peptide titrated onto a complex of FITC-labelled peptide (10 nM) and protein domain (1-2x KD); 50 mM sodium phosphate buffer pH 7.4 (CASK: plus 100 mM NaCl); KD calculated from IC50; technical triplets.
In assay [2] the target is FITC-TCF3. As to the kind of experiment: fluorescence polarisation; saturation binding: dilution series of the protein domain added to 10 nM FITC-labelled peptide; 50 mM sodium phosphate pH 7.4, 0.05% Tween (protein dialysed in 50 mM sodium phosphate with 1 mM DTT; CASK kinase domain with 100 mM NaCl in addition); quadratic fit; technical triplets. (Fluorescence polarisation rises when a labelled molecule tumbles more slowly, as on binding a larger partner.)

In assay [3] the target is importin subunit α-3 (KPNA4) ARM domain. Kind of assay: fluorescence polarisation displacement. To be noted: major pocket.
Assay [4] has as its target MAP1LC3B ATG8 domain (human). As to the kind of experiment: ITC; peptide titrated in tenfold excess in 16 injections against the protein domain; 50 mM sodium phosphate buffer pH 7.4, 1 mM DTT; iTC200. (In general: ITC needs no label: the signal is the heat of the interaction.)
Assay [5] deals with MAP1LC3B ATG8 domain (human) (UniProt Q9GZQ8). As to the kind of experiment: ITC; peptide titrated in tenfold excess in 16 injections against the protein domain; 50 mM sodium phosphate pH 7.4, 1 mM DTT; iTC200; wild-type in technical duplicate, mutant in technical triplets; one line of constants for each repeat.
In assay [6] the target is FITC-PER2. Kind of assay: fluorescence polarisation; saturation binding: dilution series of the protein domain added to 10 nM FITC-labelled peptide; 50 mM sodium phosphate pH 7.4, 0.05% Tween (protein dialysed in 50 mM sodium phosphate with 1 mM DTT; CASK kinase domain with 100 mM NaCl in addition); quadratic fit; technical triplets.
Assay [7] concerns the target ABL1 SH3 (human) (UniProt P00519). Kind of assay: fluorescence polarisation; displacement: unlabelled peptide titrated onto a complex of FITC-labelled peptide (10 nM) and protein domain (1-2x KD); 50 mM sodium phosphate buffer pH 7.4 (CASK: plus 100 mM NaCl); KD calculated from IC50; technical triplets.
The target in assay [8] is FITC-3BP2. Kind of assay: fluorescence polarisation; saturation binding: dilution series of the protein domain added to 10 nM FITC-labelled peptide; 50 mM sodium phosphate pH 7.4, 0.05% Tween (protein dialysed in 50 mM sodium phosphate with 1 mM DTT; CASK kinase domain with 100 mM NaCl in addition); quadratic fit; technical triplets.

pKd: −log10 of the molar value. “And” between values parts separate entries of the source, which are not always exact repeats. Identical values can stand only once.

Chain of CREBBP KIX domain (Q92793 587-666): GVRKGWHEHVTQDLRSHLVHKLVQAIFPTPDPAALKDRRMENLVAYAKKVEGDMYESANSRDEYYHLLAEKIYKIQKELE
Chain of ABL1 SH3 domain (P00519 61-121): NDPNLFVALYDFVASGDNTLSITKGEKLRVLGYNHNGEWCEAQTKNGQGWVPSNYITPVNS
Chain of ABL1 SH3 (human) (P00519 61-121): as above

The term pKd denotes the Kd on a negative log10 scale, so that one unit is a factor of ten. As for BUB1_(486-501) wild-type peptide, in assay [1], the pKd is 5.15.

“CREBBP KIX domain (from UniProt Q92793 587-666) (domain or fragment)”: in assay [2], the pKd was 4.46.

Substance “ABRAXAS1_(349-364) wild-type peptide R361Q” showed a pKd in assay [3] of 4.12.

In the case of BRCA2_(292-307) wild-type peptide, the results for the pKd in assay [4] and in assay [1] were 4.00 to 4.70 and 5.51, respectively.

The term stoichiometry N denotes the number of molecules, sites or subunits per partner or assembly. As to BRCA2 292-307 peptide, wild-type, in assay [5], the pKd was 3.96 and 4.20 and 4.74; the stoichiometry N was 0.7 and 0.684.

Take “BRCA2 292-307 peptide, mutant T298I/V299L/V300R”: in assay [5], the stoichiometry N was 0.744 and 0.685 and 0.649.

In the case of “Peripheral plasma membrane protein CASK (CASK) kinase domain (from UniProt O14936 12-276) (domain or fragment)”, in assay [6], the pKd was 5.47.

Take TP53 64-80 P72R peptide: in assay [7], the pKd is 3.25.

Substance “ABL1 SH3 domain (from UniProt P00519 61-121) (domain or fragment)” had a pKd in assay [8] of 5.43.

As to SQSTM1 334-349 P348L peptide, the negative logarithm of the Kd (pKd) in assay [1] is 6.22.

As for BUB1_(486-501) S492F peptide, the pKd in assay [1] was 5.80.

With SQSTM1 334-349 wild-type peptide, in assay [1], the pKd is 6.30.

Consider “BRCA2_(292-307) T298I/V299L/V300R peptide”, for which the pKd in assay [4] was 5.70; in assay [1] it was 6.28.

The record behind these values is PMC11369174, “Proteome-scale characterisation of motif-based interactome rewiring by disease mutations” (Molecular Systems Biology, 2024).
